Experimental data taken from PMC2104711 (The EMBO Journal, 2007).

Target: human XLF/Cernunnos (1–233), tag-free (cleaved XLF441) (human, UniProt Q9H9Q4 1-233)
Test: SPR

human XLF/Cernunnos (1–233), tag-free (cleaved XLF441), sequence (Q9H9Q4 1-233): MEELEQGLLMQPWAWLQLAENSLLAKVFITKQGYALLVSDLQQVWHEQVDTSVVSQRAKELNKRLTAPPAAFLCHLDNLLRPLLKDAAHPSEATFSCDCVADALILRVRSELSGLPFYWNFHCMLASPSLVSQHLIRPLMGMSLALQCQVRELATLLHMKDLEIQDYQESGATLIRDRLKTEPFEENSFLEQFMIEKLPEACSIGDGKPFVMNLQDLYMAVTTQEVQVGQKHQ

Kd: 7.8 µM
B1: XRCC4 (1–213) with N-terminal His6 tag (domain or fragment, UniProt Q13426 1-213, looked up)
chain: MERKISRIHLVSEPSITHFLQVSWEKTLESGFVITLTDGHSAWTGTVSESEISQEADDMAMEKGKYVGELRKALLSGAGPADVYTFNFSKESCYFFFEKNLKDVSFRLGSFNLEKVENPAEVIRELICYCLDTIAENQAKNEHLQKENERLLRDWNDVQGRFEKCVSAKEALETDLYKRFILVLNEKKTKIRSLHNKLLNAAQEREKDIKQEG
